Target: the molecule itself
Experiment: SEC

B1: KvLm-PM, pore module of KvLm (S4-S5 linker-S5-P-S6-C-terminus) (domain or fragment, Listeria monocytogenes, UniProt Q8Y5K1 98-247, looked up)
chain: RYIVPIYSFFRSNGLNRFLMIFVLLVIIIPVPMVFIEPEINNYPDALWWAIVTATTVGYGDIVPVTPIGRILASIMMLFGIAFIGMITSTITNFFRAKKPTNSSTQRANKITQLISETPDLTKEEIAVVEQFLTLRKKELADENTKSDSE
- stoichiometry N: 4

Reference: article PMC2585861 (The Journal of General Physiology, 2008)
